The record followed here is PMC11481497.

pKd: −log10 of the molar value.

A word on the pKd: it is the negative decadic logarithm of the Kd, by convention in mol/L. A lower pKd goes with a high Kd. As usually defined, the stoichiometry N is the number of molecules, sites or subunits per partner or assembly.

The experiment has as its target His-CaDpb3 (Dpb3 subunit of DNA polymerase epsilon of C. albicans, wild type) (C. albicans). The experiment is described as follows: ITC; 20 µM wild-type or mutant CaDpb3 in the sample cell, 100 µM CaDpb4 injected from the syringe (25 injections of 1.5 µL); 25°C; 20 mM HEPES pH 7.4, 150 mM NaCl; one-site binding model. On the technique in general: ITC needs no label: the signal is the heat of the interaction.

The substance “His-CaDpb4 (Dpb4 subunit of DNA polymerase epsilon of C. albicans, wild type) (from UniProt A0A1D8PG40 1-261) (natural protein)” had a pKd of 4.26 and a stoichiometry N of 1.
